Patent US20050002935A1

B1: human B7-H3 VCVC (expressed on CHO.HLA-DR2 transfectants) (ligand)
chain: LEVQVPEDPVVALVGTDATLCCSFSPEPGFSLAQLNLIWQLTDTKQLVHSFAEGQDQGSAYANRTALFPDLLAQGNASLRLQRVRVADEGSFTCFVSIRDFGSAAVSLQVAAPYSKPSMTLEPNKDLRPGDTVTITCSSYQGYPEAEVFWQDGQGVPLTGNVTTSQMANEQGLFDVHSILRVVLGANGTYSCLVRNPVLQQDAHSSVTITPQRSPTGAVEVQVPEDPVVALVGTDATLRCSFSPEPGFSLAQLNLIWQLTDTKQLVHSFTEGRDQGSAYANRTALFPDLLAQGNASLRLQRVRVADEGSFTCFVSIRDFGSAAVSLQVAAPYSKPSMTLEPNKDLRPGDTVTITCSSYRGYPEAEVFWQDGQGVPLTGNVTTSQMANEQGLFDVHSVLRVVLGANGTYSCLVRNPVLQQDAHGSVTITGQPMTFPPEALWVTVGLSVCLIALLVALAFVCWRKIKQSCEEENAGAEDQDGEGEGSKTALQPLKHSDSKEDDGQEIA
B2: human B7-H3 VC (expressed on CHO.HLA-DR2 transfectants) (ligand)
chain: LEVQVPEDPVVALVGTDATLCCSFSPEPGFSLAQLNLIWQLTDTKQLVHSFAEGQDQGSAYANRTALFPDLLAQGNASLRLQRVRVADEGSFTCFVSIRDFGSAAVSLQVAAPYSKPSMTLEPNKDLRPGDTVTITCSSYRGYPEAEVFWQDGQGVPLTGNVTTSQMANEQGLFDVHSVLRVVLGANGTYSCLVRNPVLQQDAHGSVTITGQPMTFPPEALWVTVGLSVCLIALLVALAFVCWRKIKQSCEEENAGAEDQDGEGEGSKTALQPLKHSDSKEDDGQEIA

Molecular target: B7-H3 receptor on human CD4+ T cells (human)
Test: cell-based or functional assay

Row | Binder | GM-CSF level reduced relative to GFP controls (multiplex ELISA, 72 h) [%] | IFN-γ level reduced relative to GFP controls (multiplex ELISA, 72 h) [%] | IL-10 level reduced relative to GFP controls (multiplex ELISA, 72 h) [%] | TNF-α level reduced relative to GFP controls (multiplex ELISA, 72 h) [%]
1 | B1 | 65 | 85 | 81 | 69
2 | B2 | 65 | 85 | 81 | 69
